Experimental data: patent US6534281

Experiments:
[1] = target: modified C-peptide (human C-peptide having Arg-Arg bound to its N-terminal and Lys-Arg bound to its C-terminal) (human); experiment: sandwich immunoassay, two-step, against C-peptide calibration; modified C-peptide 5 ng/ml; CPT-3F-11 on particles, labeled antibody 9101
[2] = target: human C-peptide (human); experiment: ELISA on immobilized C-peptide; labeled antibody 0.0 ug/ml (blank), free C-peptide 0.1 ug/ml
[3] = target: human C-peptide (human); experiment: ELISA on immobilized C-peptide; labeled antibody 10 ug/ml, free C-peptide 0 ug/ml (reference)
[4] = target: human proinsulin (human) (UniProt P01308); experiment: sandwich immunoassay, two-step, against C-peptide calibration; proinsulin 50 ng/ml; CPT-3-F11 on particles, labeled antibody PEP-001
[5] = target: human C-peptide (human); experiment: ELISA on immobilized C-peptide; labeled antibody 1.0 ug/ml, free C-peptide 0 ug/ml (reference)
[6] = target: human C-peptide (human); experiment: ELISA on immobilized C-peptide; labeled antibody 10 ug/ml, free C-peptide 0.1 ug/ml
[7] = target: human C-peptide (human); experiment: ELISA on immobilized C-peptide; labeled antibody 10 ug/ml, free C-peptide 1.0 ug/ml
[8] = target: human proinsulin (human) (UniProt P01308); experiment: sandwich immunoassay, one-step, against C-peptide calibration; proinsulin 400 ng/ml; CPT-3-F11 on particles, labeled antibody PEP-001
[9] = target: human proinsulin (human) (UniProt P01308); experiment: sandwich immunoassay, one-step; proinsulin 50 ng/ml; CPT-3F-11 on particles, labeled antibody 9101
[10] = target: human C-peptide (human); experiment: ELISA on immobilized C-peptide; labeled antibody 0.1 ug/ml, free C-peptide 0 ug/ml
[11] = target: modified C-peptide (human C-peptide having Arg-Arg bound to its N-terminal and Lys-Arg bound to its C-terminal) (human); experiment: sandwich immunoassay, one-step, against C-peptide calibration; modified C-peptide 5 ng/ml; CPT-3F-11 on particles, labeled antibody 9101
[12] = target: human proinsulin (human) (UniProt P01308); experiment: sandwich immunoassay, two-step; proinsulin 200 ng/ml; CPT-3F-11 on particles, labeled antibody 9101
[13] = target: human proinsulin (human) (UniProt P01308); experiment: sandwich immunoassay, two-step, against C-peptide calibration; proinsulin 200 ng/ml; CPT-3-F11 on particles, labeled antibody 9101
[14] = target: human C-peptide (human); experiment: ELISA on immobilized C-peptide; labeled antibody 0.0 ug/ml (blank), free C-peptide 0 ug/ml
[15] = target: human C-peptide (human); experiment: ELISA on immobilized C-peptide; labeled antibody 1.0 ug/ml, free C-peptide 0 ug/ml
[16] = target: human C-peptide (human); experiment: sandwich immunoassay, two-step; CPT-3F-11 on particles, labeled antibody PEP-001
[17] = target: human proinsulin (human) (UniProt P01308); experiment: sandwich immunoassay, one-step, against C-peptide calibration; proinsulin 400 ng/ml; CPT-3-F11 on particles, labeled antibody 9101
[18] = target: human C-peptide (human); experiment: ELISA on immobilized C-peptide; labeled antibody 10 ug/ml, free C-peptide 10 ug/ml
[19] = target: human proinsulin (human) (UniProt P01308); experiment: sandwich immunoassay, two-step, against C-peptide calibration; proinsulin 50 ng/ml; CPT-3-F11 on particles, labeled antibody 9101
[20] = target: human proinsulin (human) (UniProt P01308); experiment: sandwich immunoassay, two-step, against C-peptide calibration; proinsulin 400 ng/ml; CPT-3-F11 on particles, labeled antibody PEP-001
[21] = target: human proinsulin (human) (UniProt P01308); experiment: sandwich immunoassay, one-step, against C-peptide calibration; proinsulin 200 ng/ml; CPT-3-F11 on particles, labeled antibody PEP-001
[22] = target: modified C-peptide (human C-peptide having Arg-Arg bound to its N-terminal and Lys-Arg bound to its C-terminal) (human); experiment: sandwich immunoassay, one-step, against C-peptide calibration; modified C-peptide 5 ng/ml; CPT-3F-11 on particles, labeled antibody PEP-001
[23] = target: human C-peptide (human); experiment: sandwich immunoassay, two-step; CPT-3F-11 on particles, labeled antibody 9101
[24] = target: human C-peptide (human); experiment: ELISA on immobilized C-peptide; labeled antibody 0.1 ug/ml, free C-peptide 10 ug/ml
[25] = target: human C-peptide (human); experiment: ELISA on immobilized C-peptide; labeled antibody 0.0 ug/ml (blank), free C-peptide 10 ug/ml
[26] = target: human C-peptide (human); experiment: ELISA on immobilized C-peptide; labeled antibody 10 ug/ml, free C-peptide 0 ug/ml
[27] = target: human proinsulin (human) (UniProt P01308); experiment: sandwich immunoassay, two-step, against C-peptide calibration; proinsulin 400 ng/ml; CPT-3-F11 on particles, labeled antibody 9101
[28] = target: human C-peptide (human); experiment: ELISA on immobilized C-peptide; labeled antibody 1.0 ug/ml, free C-peptide 10 ug/ml
[29] = target: human C-peptide (human); experiment: ELISA on immobilized C-peptide; labeled antibody 1.0 ug/ml, free C-peptide 1.0 ug/ml
[30] = target: human proinsulin (human) (UniProt P01308); experiment: sandwich immunoassay, one-step, against C-peptide calibration; proinsulin 200 ng/ml; CPT-3-F11 on particles, labeled antibody 9101
[31] = target: human C-peptide (human); experiment: sandwich immunoassay, one-step; CPT-3F-11 on particles, labeled antibody PEP-001
[32] = target: human proinsulin (human) (UniProt P01308); experiment: sandwich immunoassay, one-step, against C-peptide calibration; proinsulin 50 ng/ml; CPT-3-F11 on particles, labeled antibody PEP-001
[33] = target: human C-peptide (human); experiment: ELISA on immobilized C-peptide; labeled antibody 0.0 ug/ml (blank), free C-peptide 1.0 ug/ml

Sequence of UniProt P01308 (P01308 25-110): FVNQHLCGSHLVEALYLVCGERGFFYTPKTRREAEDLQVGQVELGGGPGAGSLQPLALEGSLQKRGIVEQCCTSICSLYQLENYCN
Sequence of modified C-peptide (human C-peptide having Arg-Arg bound to its N-terminal and Lys-Arg bound to its C-terminal) (human) (peptide, as listed by the source): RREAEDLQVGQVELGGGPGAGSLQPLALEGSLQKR
Sequence of human C-peptide (human) (peptide, as listed by the source): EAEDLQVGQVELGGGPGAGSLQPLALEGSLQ

Cross-reactivity (%) to Modified C-peptide [1]: 0.5% | Absorbance (absorbance at 405 nm) [2]: 0 | Binding Ratio [2]: 0% | Binding Ratio [3]: 100% | Cross-reactivity (%) to Human Proinsulin [4]: 41.1% | Binding Ratio [5]: 100% | Absorbance (absorbance at 405 nm) [6]: 0.336 | Binding Ratio [6]: 15.5% | Absorbance (absorbance at 405 nm) [7]: 0.059 | Binding Ratio [7]: 2.7% | Cross-reactivity (%) to Human Proinsulin [8]: > 15% | counts of chemiluminescence [9]: 4140 counts | Absorbance (absorbance at 405 nm) [10]: 1.52 | Cross-reactivity (%) to Modified C-peptide [11]: 0.5% | counts of chemiluminescence [12]: 42500 counts | Cross-reactivity (%) to Human Proinsulin [13]: 1.2% | Absorbance (absorbance at 405 nm) [14]: 0 | Binding Ratio [14]: 0% | Absorbance (absorbance at 405 nm) [15]: 1.94 | 2S/N value [16]: 0.006 ng/mL | Cross-reactivity (%) to Human Proinsulin [17]: 3% | Absorbance (absorbance at 405 nm) [18]: 0.008 | Binding Ratio [18]: 0.1% | Cross-reactivity (%) to Human Proinsulin [19]: 0.4% | Cross-reactivity (%) to Human Proinsulin [20]: > 15% | Cross-reactivity (%) to Human Proinsulin [21]: > 30% | Cross-reactivity (%) to Modified C-peptide [22]: 62.7% | 2S/N value [23]: 0.005 ng/mL | Absorbance (absorbance at 405 nm) [24]: 0 | Binding Ratio [24]: 0% | Absorbance (absorbance at 405 nm) [25]: 0 | Binding Ratio [25]: 0% | Absorbance (absorbance at 405 nm) [26]: 2.17 | Cross-reactivity (%) to Human Proinsulin [27]: 1.4% | Absorbance (absorbance at 405 nm) [28]: 0.003 | Binding Ratio [28]: 0.2% | Absorbance (absorbance at 405 nm) [29]: 0.062 | Binding Ratio [29]: 3.2% | Cross-reactivity (%) to Human Proinsulin [30]: 2.6% | 2S/N value [31]: 0.012 ng/mL | Cross-reactivity (%) to Human Proinsulin [32]: 56.8% | Absorbance (absorbance at 405 nm) [33]: 0 | Binding Ratio [33]: 0%
Substance: anti-human C-peptide monoclonal antibody CPT-3-F11 (Dako)
